In patent US20030027165A1 (published 2003):

B1: GPBPΔ26, alternatively spliced GPBP variant deleted for 26 amino acid residues (enzyme)
chain: MSDNQSWNSSGSEEDPETESGPPVERCGVLSKWTNYIHGWQDRWVVLKNNALSYYKSEDETEYGCRGSICLSKAVITPHDFDECRFDISVNDSVWYLRAQDPDHRQQWIDAIEQHKTESGYGSESSLRRHGSMVSLVSGASGYSATSTSSFKKGHSLREKLAEMETFRDILCRQVDTLQKYFDACADAVSKDELQRDKVVEDDEDDFPTTRSDGDFLHSTNGNKEKLFPHVTPKGINGIDFKGEAITFKATTAGILATLSHCIELMVKREDSWQKRLDKETEKKRRTEEAYKNAMTELKKKSHFGGPDYEEGPNSLINEEEFFDAVEAALDRQDKIEEQSQSEKVRLHWPTSLPSGDAFSSVGTHRFVQKVEEMVQNHMTYSLQDVGGDANWQLVVEEGEMKVYRREVEENGIVLDPLKATHAVKGVTGHEVCNYFWNVDVRNDWETTIENFHVVETLADNAIIIYQTHKRVWPASQRDVLYLSVIRKIPALTENDPETWIVCNFSVDHDSAPLNNRCVRAKINVAMICQTLVSPPEGNQEISRDNILCKITYVANVNPGGWAPASVLRAVAKREYPKFLKRFTSYVQEKTAGKPILF
notes: The two-hybrid construct is not described; also called GPBP?26; GPBPD26
B2: Goodpasture antigen binding protein (GPBP) (enzyme, human, UniProt Q9Y5P4 1-624, looked up)
chain: MSDNQSWNSSGSEEDPETESGPPVERCGVLSKWTNYIHGWQDRWVVLKNNALSYYKSEDETEYGCRGSICLSKAVITPHDFDECRFDISVNDSVWYLRAQDPDHRQQWIDAIEQHKTESGYGSESSLRRHGSMVSLVSGASGYSATSTSSFKKGHSLREKLAEMETFRDILCRQVDTLQKYFDACADAVSKDELQRDKVVEDDEDDFPTTRSDGDFLHSTNGNKEKLFPHVTPKGINGIDFKGEAITFKATTAGILATLSHCIELMVKREDSWQKRLDKETEKKRRTEEAYKNAMTELKKKSHFGGPDYEEGPNSLINEEEFFDAVEAALDRQDKIEEQSQSEKVRLHWPTSLPSGDAFSSVGTHRFVQKPYSRSSSMSSIDLVSASDDVHRFSSQVEEMVQNHMTYSLQDVGGDANWQLVVEEGEMKVYRREVEENGIVLDPLKATHAVKGVTGHEVCNYFWNVDVRNDWETTIENFHVVETLADNAIIIYQTHKRVWPASQRDVLYLSVIRKIPALTENDPETWIVCNFSVDHDSAPLNNRCVRAKINVAMICQTLVSPPEGNQEISRDNILCKITYVANVNPGGWAPASVLRAVAKREYPKFLKRFTSYVQEKTAGKPILF

What was measured:
[1] = molecular target: T1, pol κ, DNA polymerase κ, the primary protein product of POLK (human, UniProt Q9UBT6 1-870); experiment: yeast two-hybrid
T1 construct: not shown: N-terminal yeast two-hybrid fusion part from the FLAG-modified pGBT9 or pGAD424 vector (Clontech) plus FLAG peptide; No
T1 sequence (looked up): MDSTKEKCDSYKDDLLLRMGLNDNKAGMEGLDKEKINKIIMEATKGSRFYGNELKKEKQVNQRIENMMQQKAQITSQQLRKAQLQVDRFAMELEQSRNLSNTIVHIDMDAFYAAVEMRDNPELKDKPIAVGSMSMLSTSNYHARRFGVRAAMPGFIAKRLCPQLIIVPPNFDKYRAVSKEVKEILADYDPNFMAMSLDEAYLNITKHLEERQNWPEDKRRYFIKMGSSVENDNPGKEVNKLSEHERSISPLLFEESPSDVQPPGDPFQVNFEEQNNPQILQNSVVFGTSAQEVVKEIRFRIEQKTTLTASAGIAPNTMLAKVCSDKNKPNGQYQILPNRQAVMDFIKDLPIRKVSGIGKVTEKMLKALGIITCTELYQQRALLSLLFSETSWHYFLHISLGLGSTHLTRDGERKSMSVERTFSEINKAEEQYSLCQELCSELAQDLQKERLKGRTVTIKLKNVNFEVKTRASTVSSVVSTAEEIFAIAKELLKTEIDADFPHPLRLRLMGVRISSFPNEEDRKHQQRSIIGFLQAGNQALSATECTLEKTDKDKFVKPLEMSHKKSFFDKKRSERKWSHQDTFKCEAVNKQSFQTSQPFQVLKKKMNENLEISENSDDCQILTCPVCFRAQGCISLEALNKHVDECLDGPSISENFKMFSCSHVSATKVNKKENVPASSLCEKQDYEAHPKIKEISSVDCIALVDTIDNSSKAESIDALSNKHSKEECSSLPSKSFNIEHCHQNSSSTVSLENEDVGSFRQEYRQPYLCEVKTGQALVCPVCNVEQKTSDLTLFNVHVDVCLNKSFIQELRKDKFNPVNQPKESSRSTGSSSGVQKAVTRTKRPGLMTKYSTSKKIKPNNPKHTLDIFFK

[2] = molecular target: T2, pol κ76, 76-kDa alternatively spliced isoform of DNA polymerase κ (human, UniProt Q9UBT6 1-870); experiment: yeast two-hybrid
T2 construct: 672-residue open reading frame (GenBank AF315602), cloned by RT-PCR from human foreskin RNA with ON-DIN5'm and ON-DIN-THc; It was inserted BamHI/SalI into FLAG-modified pGBT9 and pGAD424; also called 76-kDa pol κ isoform; not shown: N-terminal yeast two-hybrid fusion part from the FLAG-modified pGBT9 or pGAD424 vector (Clontech) plus FLAG peptide; No
T2 sequence: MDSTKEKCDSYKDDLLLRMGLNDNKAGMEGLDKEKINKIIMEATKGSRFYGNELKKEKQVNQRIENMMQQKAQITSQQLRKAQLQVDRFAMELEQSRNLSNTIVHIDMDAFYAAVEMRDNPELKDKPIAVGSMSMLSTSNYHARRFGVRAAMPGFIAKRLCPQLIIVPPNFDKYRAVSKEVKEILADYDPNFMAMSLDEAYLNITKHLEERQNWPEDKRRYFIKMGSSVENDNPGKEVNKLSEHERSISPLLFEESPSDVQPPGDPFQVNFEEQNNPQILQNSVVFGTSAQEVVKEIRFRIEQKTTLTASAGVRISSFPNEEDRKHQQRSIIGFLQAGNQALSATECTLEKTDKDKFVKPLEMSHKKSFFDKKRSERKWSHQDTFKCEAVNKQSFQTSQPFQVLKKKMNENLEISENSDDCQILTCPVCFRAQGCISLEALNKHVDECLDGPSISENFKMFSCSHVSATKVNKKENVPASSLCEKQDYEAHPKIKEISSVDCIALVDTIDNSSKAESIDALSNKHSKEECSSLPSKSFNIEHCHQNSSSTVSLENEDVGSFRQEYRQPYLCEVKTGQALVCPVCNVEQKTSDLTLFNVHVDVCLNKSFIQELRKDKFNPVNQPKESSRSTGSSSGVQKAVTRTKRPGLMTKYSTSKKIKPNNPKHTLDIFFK

Row | Binder | binding result [1] | binding result [2]
1 | B1 | no binding | no binding
2 | B2 | no binding | no binding
